The conditions of the data set: Myxococcus xanthus, Mops-NaOH 25 mM, CaCl2 3 mM, transition: 3, reversible: Yes, whole UniProt chain shown.

Values joined by “and” are separate entries in the source; they are usually repeats but may differ in a detail not shown here. Equal values may be shown once.

B1: Development-specific protein S wild type, P02966 (protein)
chain: MANITVFYNEDFQGKQVDLPPGNYTRAQLAALGIENNTISSVKVPPGVKAILYQNDGFAGDQIEVVANAEELGPLNNNVSSIRVISVPVQPRARFFYKEQFDGKEVDLPPGQYTQAELERYGIDNNTISSVKPQGLAVVLFKNDNFSGDTLPVNSDAPTLGAMNNNTSSIRIS
Turning to B1, under “pH 2, 20 °C, Urea, Absorbance”, the denaturant m value was 2.87 kcal/mol/M, the “denaturant midpoint (higher = more stable)” value worked out at 2.2 M and the unfolding free energy came to 6.21 kcal/mol. Besides, for the setting “pH 2, Thermal, CD”, the Tm was determined as 52 °C. Besides, under “pH 7, 20 °C, Urea, Absorbance”, the denaturant m value was 1.2 kcal/mol/M and 1.43 kcal/mol/M and 1.91 kcal/mol/M; the unfolding free energy was 5.02 kcal/mol and 7.41 kcal/mol and 3.59 kcal/mol.

The record behind these values is FireProtDB (doi:10.1006/jmbi.1999.2582).
